Experiments:
[1] = system: brainstem and midbrain explants from WT and Gprc6a-/- mice; experiment: Gene expression (qPCR) in brainstem and midbrain explants; format: cell-based, mouse
Protocol: For gene expression studies, RNA was isolated from primary neurons or tissue using TRIZOL® (Invitrogen). cDNA synthesis was performed following a standard protocol from Invitrogen and qPCR analyses were done using specific quantitative PCR primers from SABiosciences (www.sabiosciences.com/RT2PCR.php).
Brains were dissected and incubated for 30 minutes in ice cold oxygenated artificial cerebrospinal fluid (ACSF). Brains were then sliced at 500 μm at the midbrain, −1.55 to −2.35 mm from the bregma, and at the level of the brainstem, from −4.04 to −4.48 mm and from −4.60 to −5.20 mm from the bregma, to include the median and dorsal raphe, respectively. These slices were incubated in ACSF for 1 h, constantly oxygenated (95% 02 and 5% CO2) for 4 h, after which they were treated with either osteocalcin (10 ng/ml) or PBS for four hours. Expression of Tph2, TH, GAD1, GAD2, and Ddc was measured by qPCR.
To determine if osteocalcin acts directly on neurons to modulate neurotransmitter synthesis, several types of assays were performed. First, brainstem and midbrain explants from WT and Gprc6a^−/− mice were generated. Brains were sliced (500 μm) at the level of the median and dorsal raphe of the brainstem (from −4.04 to −4.48 mm and from −4.60 to −5.20 mm, respectively), so that they would be enriched in serotonin-producing neurons, as well as at the level of substantia nigrae and ventral tegmental areas (VTA) of the midbrain (from −1.55 to −2.35 mm and from −2.55 to −3.25 mm, respectively). Enrichment in serotoninergic and catecholaminergic neurons in these explants was verified by their high Tph2 and Th expression. While leptin, used here as a positive control, reduced, as it should, Tph2 expression in WT or Gprc6a^−/− brainstem explants, osteocalcin (3 ng/ml) increased expression of this gene 2.5 fold in both WT and Gprc6a^−/− explants. (FIG. 3D). Additionally, osteocalcin increased Th expression in midbrain explants and decreased Gad1 expression in both WT and in Gprc6a^−/− hindbrain explants (FIG. 3D). Second, the cultured WT and Gprc6a^−/− mouse primary hindbrain neurons (MPHN) were treated with osteocalcin (3 ng/ml). […] Third, to further confirm that osteocalcin signals in neurons of the hindbrain, calcium flux in MPHN treated with undercarboxylated or carboxylated osteocalcin (FIG. 3F) was measured. […] Moreover, osteocalcin inhibits the action potential frequency of the GABAergic interneurons of the hindbrain (FIG. 3H).

[2] = system: brainstem neurons, neurons of the locus coeruleus, GABAergic interneurons of the hindbrain; experiment: Electrophysiology, whole cell current clamp recording in brain slices; format: cell-based, mouse
Protocol: Brain slice preparations and electrophysiological recordings were performed according to methods known in the art. Briefly, WT mice were anesthetized with ether and then decapitated. The brains were rapidly removed and immersed in an oxygenated bath solution at […] containing (in mM): sucrose 220, KCl 2.5, CaCl2 1, MgCl2 6, NaH2PO4 1.25, NaHCO3 26, and glucose 10 pH 7.3 with NaOH. Coronal slices (350 μm thick) containing dorsal raphe (DR) were cut on a vibratome and maintained in a holding chamber with artificial cerebrospinal fluid (ACSF) (bubbled with 5% CO2 and 95% O2) containing (in mM): NaCl 124, KCl 3, CaCl2 2, MgCl2 2, NaH2PO4 1.23, NaHCO3 26, glucose 10, pH 7.4 with NaOH, and were transferred to a recording chamber constantly perfused with bath solution (330 C) at 2 ml/min after at least a 1 hr recovery. Whole-cell current clamp was performed to observe action potentials in DR serotoninergic (5-HT) neurons with a Multiclamp 700A amplifier (Axon instrument, CA). Patch pipettes with a tip resistance of 4-6 MS2 were made of borosilicate glass (World Precision Instruments) with a Sutter pipette puller (P-97) and filled with a pipette solution containing (in mM): K-gluconate (or Cs-gluconate) 135, MgCl2 2, HEPES 10, EGTA 1.1, Mg-ATP 2, Na2-phosphocreatine 10, and Na2-GTP 0.3, pH 7.3 with KOH. After a giga-Ohm (GΩ) seal and whole-cell access were achieved, the series resistance (between 20 and 40 MΩ) was partially compensated by the amplifier. […] Electrophysiological data were analyzed with Axograph 4.9 and plotted with Igor Pro software (WaveMetrics, Lake Oswego, Oreg.).
To determine if osteocalcin acts directly on neurons to modulate neurotransmitter synthesis, several types of assays were performed. […] Third, to further confirm that osteocalcin signals in neurons of the hindbrain, calcium flux in MPHN treated with undercarboxylated or carboxylated osteocalcin (FIG. 3F) was measured. […]

[3] = system: WT mice; experiment: ICV infusion in adult WT mice, D/LT and EPMT tests; format: in vivo, mouse; settings: ICV 3 or 10 ng/hour for one month
Protocol: FIG. 8. Osteocalcin improves cognitive function in adult wild-type (WT) mice. Results from dark and light (DLT) and elevated plus maze tests (EPMT) performed in 3-month old WT mice infused ICV with vehicle (PBS) or Ocn (3, 10, 30 ng/hour) are shown. (A) DLT measuring the latency to enter, the number of entries, and the time spend in lit compartment. (B) EPMT measuring the number of entries into open arms and the time spend in lit compartments.
Each mouse was allowed to explore the apparatus for 5 min. Global activity was assessed by measuring the number of entries […] (David et al, 2009, Neuron 62:479-493). Anxiety was assessed by comparing the time spent in the open arms.
The test was performed in a quiet, darkened room. Mice were individually housed in cages containing a handful of bedding from their home cage and acclimated to the room at least 1 h before the test. Naïve mice were placed individually in the testing chamber in the dark compartment. The test was 5 min in duration, and time spent and number of entries in light compartments were recorded a highly trained observer, blind to the genotype of the mice. […]

B1: uncarboxylated osteocalcin: Recombinant osteocalcin bacterially produced, cleaved from the GST subunit; completely undercarboxylated at all three sites (protein, listed as Homo sapiens)
chain: MRALTLLALLALAALCIAGQAGAKPSGAESSKGAAFVSKQEGSEVVKRPRRYLYQWLGAPVPYPDPLEPRREVCELNPDCDELADHIGFQEAYRRFYGPV
modifications: uncarboxylated
notes: Recombinant osteocalcin bacterially produced, cleaved from the GST subunit; completely undercarboxylated at all three sites
B1 was tested, and the “Tph2 expression in brainstem explants” value ([1]; osteocalcin 3 ng/ml, WT and Gprc6a-/- explants) was 2.5 fold, the “Gad1 expression in hindbrain explants” value ([1]; osteocalcin, WT and Gprc6a-/- hindbrain explants) was “decreased” and the “Th expression in midbrain explants” value ([1]; osteocalcin, midbrain explants) was “increased”. The “action potential frequency of the GABAergic interneurons of the hindbrain” value [2] was “inhibits”, the “action potential frequency in neurons of the locus coeruleus” value ([2]; whole cell current clamp) was “decreases” and the “action potential frequency of brainstem neurons” value ([2]; whole cell current clamp) was “activates”. The “exploration of the lit compartment and open arms in D/LT and EPM tests” value ([3]; WT mice) was “increase in the exploration” and the “anxiety-like behavior (D/LT and EPMT)” value ([3]; WT mice implanted at 2 months) was “decrease in anxiety-like behavior”.

— patent US10052364B2, “Osteocalcin as a treatment for cognitive disorders” (THE TRUSTEES OF COLUMBIA UNIVERSITY IN THE CITY OF NEW YORK, priority 2013, dated 2018)
